This note sets out measurements from US20250242023A1 (published 2025).

Test [1] concerns the target T1, mesothelin (MsIn), murine peptide on H-2Db (mouse).
T1 peptide: GQKMNAQAI
Description: cytokine release.

Test [2] deals with T1, mesothelin (MsIn), murine peptide on …. In words: multimer staining. From the text: Flow cytometry: Mononuclear cells were stained with MsIn₄₀₆₋₄₁₄:H-2D^b-APC or -BV421 tetramer (1:100) in the presence of 1:100 Fc block (αCD16/32, Tonbo), and monoclonal antibodies diluted 1:100 in FACs Buffer (2% BSA+PBS) or (2.5% FBS+PBS+1% NaN₃) and specific to CD45 (30F-11, Biolegend), CD8a (53-6.7, Tonbo), CD44 (IM7, BD Biosciences), CD62L (MEL-14, Biolegend), CD69 (H1.2F3, BD Biosciences), CD25 (PC61, BD Biosciences), Vβ9 (MR10-2, Biolegend), CD3e (145-2C11, BD Biosciences), CD4 (GK1.5, BD Biosciences), and/or TCRβ (h57-597, eBiosciences) in the presence of live/dead stain (Tonbo Ghost dye in BV510 or APC ef780). Cells were fixed using Foxp3 transcription factor reagent (Tonbo), for 30 minutes at 4° C., washed and intracellular stained with aKi67 (B56, BD Biosciences) and/or Foxp3 (3G3, Tonbo) diluted 1:100 in Fix/Perm buffer (Tonbo) and stained overnight. The next day, cells were washed 2× with perm wash buffer and resuspended in FACs buffer or 0.4% PFA for 15 minutes at 4° C. Cells were resuspended in FACs buffer and Countbright Absolute Counting Beads (Thermo Fisher). Cells were acquired with a Fortessa 1770 flow cytometer and Facs Diva software (BD Biosciences). Data were analyzed using FlowJo software (version 10). ViSNE analysis was performed by gating on total live T cells with default settings of 1000 iterations, 30 perplexity and theta of 0.5 using Cytobank software.

B1: 7431 TCR (TCR, V domains shown)
Valpha: GDSVTQTEGPVTVSESESLIINCTYSATSIAYPNLFWYVRYPGEGLQLLLKVITAGQKGSSRGFEATYNKETTSFHLQKASVQESDSAVYYCALGPDTNAYKVIFGKGTHLHVLP
Vbeta: DTTVKQNPRYKLARVGKPVNLICSQTMNHDTMYWYQKKPNQAPKLLLFYYDKILNREADTFEKFQSSRPNNSFCSLYIGSAGLEYSAMYLCASSRGANTEVFFGKGTRLTVV
On to B1, for which the binding result in test [1] is “recognises”.

B2: 1045 TCR (TCR, V domains shown)
Valpha: GDSVTQTEGPVTVSESESLIINCTYSATSIAYPNLFWYVRYPGEGLQLLLKVITAGQKGSSRGFEATYNKETTSFHLQKASVQESDSAVYYCALGLDYANKMIFGLGTILRVRP
Vbeta: DTTVKQNPRYKLARVGKPVNLICSQTMNHDTMYWYQKKPNQAPKLLLFYYDKILNREADTFEKFQSSRPNNSFCSLYIGSAGLEYSAMYLCASSNPQDTQYFGPGTRLLVL
Consider B2, for which the binding result in test [2] was “recognises”.
